Data on three molecules can be found in patent US20120093719A1 (PROSCAN RX PHARMA, published 2012).

Assay [1] has as its target T1, prostate specific membrane antigen (PSMA) (human, UniProt Q04609 1-750).
T1 construct: whole, on cells; In the assays PSMA stood as endogenous protein in LNCaP cell membrane preparations (ELISA) or LNCaP lysate (western blot); The background says PSMA forms a noncovalent homodimer
The assay is described as follows: ELISA, serially diluted antibody on membrane preparation of PSMA-expressing LNCaP cells against PSMA-negative PC-3. The procedure: FIG. 4: immunoreactivity mAb1 to cancer cell line. Serially diluted purified antibody was tested by ELISA on a cell membrane preparation that express PSMA (LNCaP) or not (PC-3). The antibody reacts strongly with the LNCaP preparation while the PC-3 remains unreactive;
Immunoreactivity of mAb1_against cancer cell line was tested by ELISA. Serially diluted purified antibody was tested on a cell membrane preparation that express PSMA (LNCaP) or not (PC-3).

Assay [2] addresses T1, prostate specific membrane antigen …. Description: ELISA after 5 days at 37 C in 0.1M glycine buffered with Tris to pH 7.4. For orientation: An ELISA detects its analyte on a solid surface through an enzyme-linked reagent.
Assay [3] has the same target. The assay is described as follows: ELISA on LNCaP or PC-3 membrane preparation. The protocol:
An ELISA assay was used to test the reactivity and specificity of purified chimeric anti-PSMA antibodies. Briefly, 96-well plates (Immulon 2HB) were coated overnight at 4° C. or for 2 h at 37° C. with 100 uL of PBS containing 5 ug of cell membrane preparation. Plates were washed four times with 200 uL of 10 mM Tris-HCl, 150 mM NaCl, and 0.1% Tween-20 (TBST, pH 7.5), and blocked for 1 h with 200 uL of TBST containing 5% FBS. Plates were then washed and incubated for 1 h at room temperature using 100 uL of serially diluted purified chimeric anti-PSMA antibodies in TBST containing 5% FBS. Antibody binding was detected by the sequential addition, followed by washing, of 100 uL of horseradish peroxidase (HRP) conjugated goat anti-human IgG whole molecule (Jackson Immunoresearch) diluted 1:5000 in TBST containing 5% FBS, for 1 h at room temperature, and 100 uL of HRP colorimetric substrate solution 3,3′,5,5′-tetramethylbenzidine (BioFX Laboratories). The reaction was stopped with the addition of 100 uL of 0.5 M sulphuric acid and the absorbance was read at 450 nm in a microplate reader (Bio-Tek Instruments).
The reactivity of the DOTA conjugated antibody (chAb1-DOTA) was compared to the unconjugated antibody (chAb1) by ELISA on a cell membrane preparation that express PSMA (LNCaP) or not (PC-3) (FIG. 14).

T1 sequence (Q04609 whole entry): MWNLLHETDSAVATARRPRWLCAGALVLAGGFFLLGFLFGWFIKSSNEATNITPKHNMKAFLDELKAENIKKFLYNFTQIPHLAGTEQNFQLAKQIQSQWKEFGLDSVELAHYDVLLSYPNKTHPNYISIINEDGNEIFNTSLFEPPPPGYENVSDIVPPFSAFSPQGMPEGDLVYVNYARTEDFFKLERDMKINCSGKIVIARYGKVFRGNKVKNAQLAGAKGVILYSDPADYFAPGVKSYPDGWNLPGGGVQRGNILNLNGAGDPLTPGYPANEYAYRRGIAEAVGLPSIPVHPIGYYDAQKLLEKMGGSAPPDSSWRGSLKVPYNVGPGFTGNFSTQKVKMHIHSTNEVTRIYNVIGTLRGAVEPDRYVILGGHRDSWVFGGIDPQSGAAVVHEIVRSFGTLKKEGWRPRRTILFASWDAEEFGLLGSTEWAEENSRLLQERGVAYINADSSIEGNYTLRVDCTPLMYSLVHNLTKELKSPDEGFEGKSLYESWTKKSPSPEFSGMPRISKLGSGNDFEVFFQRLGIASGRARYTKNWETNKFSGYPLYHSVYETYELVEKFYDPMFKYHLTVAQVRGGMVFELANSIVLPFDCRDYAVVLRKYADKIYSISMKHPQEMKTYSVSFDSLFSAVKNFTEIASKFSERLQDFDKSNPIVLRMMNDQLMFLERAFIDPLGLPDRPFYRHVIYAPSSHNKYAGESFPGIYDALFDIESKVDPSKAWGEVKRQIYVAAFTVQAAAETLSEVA

B1: murine monoclonal anti-PSMA antibody mAb1 (antibody, V domains shown)
VH: EVQLQQSGAELVKPGASVKLSCTASGFNIKDTYMHWVKQRPEQGLEWIGGIDPADGETKYDPKFQDKATITTDTSSNTVYLQISSLTSEDTAVYYCVRSFDYWGQGTTLTVSS
VL: DVVMTQTPLSLPVSLGDQASISCRSSQSLVHSNGNTYLHWYLQKPGQSPKFLIYKASNRFSGVPDRFSGRGSGTDFTLKISRVEAEDLGVYFCFQSTHVPYTFGGGTKLEIKR
notes: also called murine anti-PSMA antibody; murine parental antibody
Regarding B1, in assay [1], the binding result is “binds”.

B2: murine/human chimeric anti-PSMA antibody chAb1 (antibody, human IgG1, kappa, V domains shown)
VH: B1 VH
VL: B1 VL
notes: also called chimeric antibody
With B2, the binding result in assay [2] is on record as “binds”.

B3: DOTA-conjugated chimeric anti-PSMA antibody chAb1-DOTA (antibody, V domains shown)
VH: B1 VH
VL: B1 VL
modifications: DOTA conjugated through DOTA-NHS ester; sites and chain not stated
notes: also called DOTA conjugated antibody
Take B3: the binding result in assay [3] is listed as “binds”.
